Test results taken from patent publication US20250188176A1 (INVETX, published 2025).
Substitutions are numbered along the chain they refer to. “And” between values parts separate entries of the source, which are not always exact repeats. Identical values can stand only once.

Experiments:
[1] = target: T1, Extracellular domain (ECD) of the canine IL-4 receptor alpha-AviTag-His Tag (canine); assay: SPR, IgG captured via anti-dog H+L
T1 construct: expressed in CHO cells; also called canine IL-4RA; canine IL4Ra
T1 chain: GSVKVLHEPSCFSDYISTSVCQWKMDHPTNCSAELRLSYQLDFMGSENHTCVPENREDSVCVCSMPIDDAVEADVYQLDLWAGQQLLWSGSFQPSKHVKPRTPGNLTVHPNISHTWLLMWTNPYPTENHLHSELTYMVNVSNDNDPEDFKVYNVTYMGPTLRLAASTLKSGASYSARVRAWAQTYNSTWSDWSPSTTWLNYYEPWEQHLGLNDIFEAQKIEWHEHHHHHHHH

[2] = target: T2, Extracellular domain (ECD) of the canine IL-4 receptor alpha-V5 epitope-AviTag-His Tag (canine); assay: SPR, Fab-SASA captured on BSA;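 note: biacore T200 SPR, Fab-SASA variants from E. coli conditioned medium captured on BSA-coated CM5 chip, canine IL-4RA injected 120 s then 420 s dissociation, 1:1 model fit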
T2 construct: monomeric form isolated by size exclusion; also called canine IL-4RA-V5-Avi-His; canine IL-4RA
T2 chain: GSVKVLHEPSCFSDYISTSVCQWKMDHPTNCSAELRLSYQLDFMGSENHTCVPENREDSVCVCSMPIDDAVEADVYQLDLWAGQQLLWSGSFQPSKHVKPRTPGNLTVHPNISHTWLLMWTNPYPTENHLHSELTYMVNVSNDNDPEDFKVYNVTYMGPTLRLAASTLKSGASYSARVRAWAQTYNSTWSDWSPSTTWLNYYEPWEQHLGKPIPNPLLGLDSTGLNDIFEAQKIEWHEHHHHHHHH

[3] = target: canine IL-4RA (construct not given) (canine); assay: SPR, combinatorial Fab-SASA clone
[4] = target: T1, Extracellular domain (ECD) of the …; assay: SPR, IgG captured via anti-dog Fc
[5] = target: T1, Extracellular domain (ECD) of the …; assay: SPR, IgG captured via anti-dog H+L
[6] = target: canine IL-4RA on canine DH82 cells (canine); assay: cell-based or functional assay
[7] = target: canine IL-4RA on canine DH82 cells (canine); assay: cell-based or functional assay; remark: listed apart in the source
[8] = target: T1, Extracellular domain (ECD) of the …; assay: SPR, IgG captured via anti-dog Fc
[9] = target: T1, Extracellular domain (ECD) of the …; assay: SPR, IgG captured via anti-dog Fc
[10] = target: T2, Extracellular domain (ECD) of the …; assay: SPR, antibody captured via anti-human Fc

B1: TB640_275 (antibody, V domains shown)
VH: EVQLVESGGDLVKPGGSLRLSCVASGFTFRDYAMDWVRQAPGKGLQWLSLISGSGGKTYYADAVKGRFTISRDNAKNTLYLQMNSLRAEDTAVYYCAVDRLTKTIRPQYYGLWVWGQGTLVTVSS
VL: DIVMTQTPLSLSVSPGETASISCRSSQSLLYSIGYNYLDWYMQKPGQSPQGLIYLGSKRASGVSDRFSGSGSGADFTLKISRVEADDAGVYYCMQGLQSPLTFGQGTKLEIKR
notes: also called TB640_275-H + TB640_275-L
B1 was tested, and the Kd [1] was 1.71 nM, the koff [1] was 0.000487 s⁻¹ and the kon [1] was 287000 M⁻¹ s⁻¹.

B2: TB640_005 Fab-SASA wild type (Fab, V domains shown)
VH: B1 VH with D35T, L48V
VL: B1 VL with M42L, S64P, A74T, K79R, D86N, A88T
notes: secreted from E. coli, tested in conditioned medium; also called WT; not shown: SASA tag then His-tag
B2 was tested, and the Kd [2] was 13 nM and 13.3 nM and 13.2 nM, the “Ratio WT-kd/clone-kd” value [2] was 1 and the koff [2] was 0.000952 s⁻¹ and 0.000953 s⁻¹. For the same binder, the kon [2] was 73100 M⁻¹ s⁻¹ and 71700 M⁻¹ s⁻¹ and 72400 M⁻¹ s⁻¹, the Kd [3] was 6.07 nM and the koff [3] was 0.00116 s⁻¹. The kon [3] was 191000 M⁻¹ s⁻¹.

B3: TB640_005 (antibody, V domains shown)
VH: B1 VH with D35T, L48V
VL: B1 VL with M42L, S64P, A74T, K79R, D86N, A88T
notes: caninized IgG; also called TB640_005-H + TB640_005-L
B3 was tested, and the Kd [4] was 2.29 nM, the koff [4] was 0.000486 s⁻¹ and the kon [4] was 212000 M⁻¹ s⁻¹. For the same binder, the Kd [5] was 2.72 nM, the koff [5] was 0.000484 s⁻¹ and the kon [5] was 180000 M⁻¹ s⁻¹.

B4: GFmix_PTH-H + GFmix_THS-L (antibody, V domains shown)
VH: B1 VH with T28P, D35T, V114H
VL: B1 VL with L30T, Q98H, T102G
With B4 the “IC50: % inhibition of STAT6 phosphorylation (AlphaLISA pSTAT6) in canine DH82 cells stimulated with 20 ng/mL canine IL-4” value (from here on “IC50: % inhibition … with 20 ng/mL canine IL-4”) [6] was 1.03 nM, the Kd [4] was 0.171 nM and the koff [4] was 7.78e-05 s⁻¹. The kon [4] was 458000 M⁻¹ s⁻¹ and the “IC50: % inhibition of STAT6 phosphorylation (AlphaLISA pSTAT6) in canine DH82 cells stimulated with 50 ng/mL canine IL-13” value [7] was 0.21 nM.

B5: 21188-H + 21188-L (antibody, V domains shown)
VH: B1 VH with D35T, V114H
VL: B1 VL with L30T, T102G
With B5 the Kd [8] was 0.4 nM, the koff [8] was 9.85e-05 s⁻¹ and the kon [8] was 246000 M⁻¹ s⁻¹. For the same binder, the “IC50: % inhibition … with 20 ng/mL canine IL-4” value [6] was 2.17 nM, the Kd [4] was 0.243 nM and the koff [4] was 9.93e-05 s⁻¹. It also gave a kon [4] of 410000 M⁻¹ s⁻¹, a Kd [9] of 0.18 nM and a koff [9] of 5.96e-05 s⁻¹. For the same binder, the kon [9] was 332000 M⁻¹ s⁻¹.

B6: GFmix_PTH-H + GFmix3_KTHS-L (antibody, V domains shown)
VH: B1 VH with T28P, D35T, V114H
VL: B1 VL with Q27K, L30T, Q98H, T102S
For B6, the “IC50: % inhibition … with 20 ng/mL canine IL-4” value [6] was 0.6 nM, the Kd [4] was 0.17 nM and the koff [4] was 7.58e-05 s⁻¹. For the same binder, the kon [4] was 447000 M⁻¹ s⁻¹.

B7: Dupilumab (dupilumab VH with human IgG1 constant region, dupilumab kappa light chain) (antibody, V domains shown)
VH: EVQLVESGGGLEQPGGSLRLSCAGSGFTFRDYAMTWVRQAPGKGLEWVSSISGSGGNTYYADSVKGRFTISRDNSKNTLYLQMNSLRAEDTAVYYCAKDRLSITIRPRYYGLDVWGQGTTVTVSS
VL: DIVMTQSPLSLPVTPGEPASISCRSSQSLLYSIGYNYLDWYLQKSGQSPQLLIYLGSNRASGVPDRFSGSGSGTDFTLKISRVEAEDVGFYYCMQALQTPYTFGQGTKLEIKR
notes: human IgG1 instead of the IgG4 of the drug
Work on B7 yielded a Kd [10] of 130 nM, a koff [10] of 0.143 s⁻¹ and a kon [10] of 1.09e+06 M⁻¹ s⁻¹.
